Where two headings read alike, the source gives them in different places. *1 amine or outer side, *2 acyl side, *3 side chain or, on linkers, in order; H or OH if unused. Bridges are numbered along the chain shown (N, C = ends). [ ]: non-standard residue; d: D form. The star is where a group is joined. Phe(4-OMe) = 4-methoxy-L-phenylalanine (O-methyl-L-tyrosine), COc1ccc(C[C@H](N[*:1])C(=O)[*:2])cc1; 2Nal = N[C@@H](Cc1ccc2ccccc2c1)C(=O)O; Palmitoyl = CCCCCCCCCCCCCCCC(=O)*; NMeK = CN[C@@H](CCCCN)C(=O)O; αMeK = C[C@](N)(CCCCN)C(=O)O; Abu = CC[C@H](N)C(=O)O; AEA = NCCOCC(=O)O
Legend:
[1] = biological target: T1, IL-23R on human cells (IL-23R-expressing DB cells; human NK cells) (human, UniProt Q5VWK5 24-629); assay: cell-based or functional assay
T1 sequence (looked up): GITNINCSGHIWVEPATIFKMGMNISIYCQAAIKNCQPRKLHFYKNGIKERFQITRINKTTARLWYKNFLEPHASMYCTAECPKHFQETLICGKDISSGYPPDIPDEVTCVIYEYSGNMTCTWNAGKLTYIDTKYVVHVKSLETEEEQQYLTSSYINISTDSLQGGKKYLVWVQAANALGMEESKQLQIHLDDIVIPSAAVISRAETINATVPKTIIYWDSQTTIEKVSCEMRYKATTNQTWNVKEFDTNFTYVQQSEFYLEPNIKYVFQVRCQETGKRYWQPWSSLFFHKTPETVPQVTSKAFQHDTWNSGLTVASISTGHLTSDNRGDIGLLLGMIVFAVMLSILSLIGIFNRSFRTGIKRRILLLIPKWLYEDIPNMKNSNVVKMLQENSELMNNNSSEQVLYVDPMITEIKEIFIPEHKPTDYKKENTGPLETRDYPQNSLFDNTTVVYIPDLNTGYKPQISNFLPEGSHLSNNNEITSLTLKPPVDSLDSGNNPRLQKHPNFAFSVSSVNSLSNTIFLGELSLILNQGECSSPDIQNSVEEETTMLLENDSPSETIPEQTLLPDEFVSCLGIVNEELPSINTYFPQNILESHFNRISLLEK

[2] = biological target: T2, IL-23R on DB cells (human, UniProt Q5VWK5 24-629); assay: cell-based or functional assay
T2 sequence (looked up): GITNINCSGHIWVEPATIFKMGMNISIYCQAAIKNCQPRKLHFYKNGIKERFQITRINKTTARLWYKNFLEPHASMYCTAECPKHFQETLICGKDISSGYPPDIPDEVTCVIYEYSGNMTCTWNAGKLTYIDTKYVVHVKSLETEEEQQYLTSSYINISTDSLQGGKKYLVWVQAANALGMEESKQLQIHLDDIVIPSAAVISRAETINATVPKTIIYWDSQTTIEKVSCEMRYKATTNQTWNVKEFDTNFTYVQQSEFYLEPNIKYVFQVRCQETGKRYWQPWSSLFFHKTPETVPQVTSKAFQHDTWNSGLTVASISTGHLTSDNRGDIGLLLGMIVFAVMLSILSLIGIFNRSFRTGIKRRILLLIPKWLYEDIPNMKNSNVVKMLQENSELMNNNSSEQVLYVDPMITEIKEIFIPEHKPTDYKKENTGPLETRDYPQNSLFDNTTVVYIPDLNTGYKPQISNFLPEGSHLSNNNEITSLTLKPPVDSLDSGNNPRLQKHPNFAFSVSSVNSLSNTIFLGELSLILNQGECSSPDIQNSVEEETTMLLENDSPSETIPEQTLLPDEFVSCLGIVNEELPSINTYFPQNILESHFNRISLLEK

[3] = biological target: T3, Rat IL-23R_huFC (rat, UniProt F1LX96 39-369); assay: rat IL-23R competitive binding ELISA
T3 sequence: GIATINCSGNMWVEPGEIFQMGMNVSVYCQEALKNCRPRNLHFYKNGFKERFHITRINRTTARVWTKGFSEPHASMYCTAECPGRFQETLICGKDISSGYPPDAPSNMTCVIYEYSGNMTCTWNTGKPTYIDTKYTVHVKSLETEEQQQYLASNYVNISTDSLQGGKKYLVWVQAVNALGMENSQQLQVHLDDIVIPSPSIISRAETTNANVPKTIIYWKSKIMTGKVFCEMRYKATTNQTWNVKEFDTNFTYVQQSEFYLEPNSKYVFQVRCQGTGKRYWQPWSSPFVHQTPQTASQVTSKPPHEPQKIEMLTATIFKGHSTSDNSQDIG

[4] = biological target: T4, IL23R_huFC (human, UniProt Q5VWK5 24-353); assay: IL23-IL23R competitive ELISA
T4 sequence (looked up): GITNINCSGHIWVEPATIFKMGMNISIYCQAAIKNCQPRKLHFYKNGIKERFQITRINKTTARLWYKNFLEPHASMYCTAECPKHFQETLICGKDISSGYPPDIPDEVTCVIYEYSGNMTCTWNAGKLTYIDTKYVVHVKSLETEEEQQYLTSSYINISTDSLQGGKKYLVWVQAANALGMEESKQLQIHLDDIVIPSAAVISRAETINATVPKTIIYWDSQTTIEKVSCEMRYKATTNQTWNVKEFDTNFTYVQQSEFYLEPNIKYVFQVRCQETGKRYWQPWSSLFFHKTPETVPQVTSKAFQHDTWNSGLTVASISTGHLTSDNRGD

[5] = biological target: Rat IL-23R_huFC (rat); assay: rat ELISA vs IL-23
[6] = biological target: T5, IL23R_huFC (human, UniProt Q5VWK5 24-353); assay: human ELISA vs IL-23
T5 sequence (looked up): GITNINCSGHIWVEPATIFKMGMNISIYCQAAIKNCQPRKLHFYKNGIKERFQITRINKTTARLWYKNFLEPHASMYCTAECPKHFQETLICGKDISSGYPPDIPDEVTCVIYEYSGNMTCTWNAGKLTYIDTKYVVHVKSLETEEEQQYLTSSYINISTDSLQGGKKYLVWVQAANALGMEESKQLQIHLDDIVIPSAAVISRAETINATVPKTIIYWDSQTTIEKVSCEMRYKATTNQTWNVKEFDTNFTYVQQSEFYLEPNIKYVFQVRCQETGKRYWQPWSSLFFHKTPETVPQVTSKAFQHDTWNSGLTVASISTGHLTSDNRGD

[7] = biological target: T1, IL-23R on human cells …; assay: cell-based or functional assay; remark: listed apart in the source
[8] = biological target: T5, IL23R_huFC; assay: human ELISA vs IL-23; remark: listed apart in the source
[9] = biological target: T6, IL23R_huFC (human, UniProt Q5VWK5 24-353); assay: IL23-IL23R competitive binding ELISA
T6 sequence (looked up): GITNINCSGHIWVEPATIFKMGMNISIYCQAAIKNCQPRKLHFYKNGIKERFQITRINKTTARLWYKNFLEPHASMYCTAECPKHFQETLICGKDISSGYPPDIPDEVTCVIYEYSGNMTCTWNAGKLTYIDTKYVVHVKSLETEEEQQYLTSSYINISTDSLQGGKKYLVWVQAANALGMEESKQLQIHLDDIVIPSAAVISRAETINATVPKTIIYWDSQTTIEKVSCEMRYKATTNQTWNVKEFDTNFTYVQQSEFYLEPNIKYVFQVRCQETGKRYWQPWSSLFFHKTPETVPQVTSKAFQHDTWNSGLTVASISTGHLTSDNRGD

[10] = biological target: T3, Rat IL-23R_huFC; assay: rat IL-23R competitive binding ELISA; remark: listed apart in the source

B1: Ac-[Pen]-NTWQ-[Pen]-[Phe]4-(2-aminoethoxy)]-[2-Nal]-[Aib]-[Lys(Ac)]-NN-NH2 (peptide)
peptide: XNTWQXFXXKNN
modifications: as bracketed in name; Pen-Pen disulfide
[1]
  NK cell assay IC50 (IFNγ): < 10 nM

B2: Ac-CSTWQCYWLKHGGE-NH2 (peptide)
peptide: Ac-CSTWQCYWLKHGGE-NH2
modifications: disulfide 1-6
SMILES: CC(=O)N[C@H]1CSSC[C@@H](C(=O)N[C@@H](Cc2ccc(O)cc2)C(=O)N[C@@H](Cc2c[nH]c3ccccc23)C(=O)N[C@@H](CC(C)C)C(=O)N[C@@H](CCCCN)C(=O)N[C@@H](Cc2c[nH]cn2)C(=O)NCC(=O)NCC(=O)N[C@@H](CCC(=O)O)C(N)=O)NC(=O)[C@H](CCC(N)=O)NC(=O)[C@H](Cc2c[nH]c3ccccc23)NC(=O)[C@H]([C@@H](C)O)NC(=O)[C@H](CO)NC1=O
[2]
  pStat3 HTRF IC50: 2 nM
[3]
  IC50: 24 nM

B3: [Ac-[Pen]-NTWQ-[Pen]-[Phe(4-CONH2)]-[2-Nal]-[Aib]-KNN-NH2]2 DIG (peptide)
peptide: XNTWQXFXXKNN
modifications: as bracketed in name; Pen-Pen disulfide; DIG linker
[1]
  NK cell assay IC50 (IFNγ): < 10 nM

B4: Ac-ARTWQ-[MeCys]-YWRKFG-[AEA]-[(D)Lys]-NH2 (peptide)
peptide: Ac-ARTWQ[MeCys]YWRKFG[AEA][dK]-NH2
modifications: not fully specified; printed as Ac-ARTWQ-[MeCys]-YWRKFG-[AEA]-[(D)Lys]-NH2
[4]
  IC50: 7570 nM

B5: Ac-C-[N-MeLys]-TWQCYWRVFG-[AEA]-[(D)Lys]-NH2 (peptide)
peptide: Ac-C[NMeK]TWQCYWRVFG[AEA][dK]-NH2
modifications: cysteine pairing not given here
[4]
  IC50: 80 nM

B6: Ac-CKTWQCYWRVFG-[AEA]-[(D)Lys]-NH2 (peptide)
peptide: Ac-CKTWQCYWRVFG[AEA][dK]-NH2
modifications: cysteine pairing not given here
[4]
  IC50: 40 nM

B7: Ac-[Pen]-QTWQ-[Pen]-[Phe[4-(2-aminoethoxy)]-[2-Nal]-[α-MeLeu]-[Lys(Ac)]-NN-NH2 (peptide)
peptide: XQTWQXFXLKNN
modifications: as bracketed in name; Pen-Pen disulfide
[1]
  NK cell assay IC50 (IFNγ): < 10 nM

B8: Ac-Cyclo-[[Abu]-QTWQC]-[Phe(4-OMe)]-[2-Nal]-[(D)Asn]-[Lys(Ac)]-NG-NH2 (peptide)
peptide: Ac-[Abu]QTWQC[Phe(4-OMe)][2Nal][dN]K(Ac)NG-NH2
modifications: thioether 1-6
[5]
  IC50: 100 to 1000 nM
[6]
  IC50: 25 to 100 nM

B9: Ac-Cyclo-[[Abu]-QTWQC]-[Phe(4-OMe)]-[2-Nal]-[α-MeLys]-ENG-NH2 (peptide)
peptide: Ac-[Abu]QTWQC[Phe(4-OMe)][2Nal][αMeK]ENG-NH2
modifications: thioether 1-6
[5]
  IC50: 100 to 1000 nM
[7]
  pStat3 HTRF IC50: < 10 nM
[6]
  IC50: 25 to 100 nM

B10: Ac-Cyclo-[[Abu]-QTWQC]-YWRENG-[AEA]-[(D)Lys]-NH2 (peptide)
peptide: Ac-[Abu]QTWQCYWRENG[AEA][dK]-NH2
modifications: thioether 1-6
[5]
  IC50: 100 to 1000 nM
[8]
  IC50: 100 to 1000 nM

B11: Ac-CQTWQCYW-[α-MeLeu]-ENG-NH2 (peptide)
peptide: CQTWQCYWLENG
modifications: not fully specified; Ac; α-MeLeu at 9; NH2
[2]
  pStat3 HTRF IC50: 5 nM
[3]
  IC50: 27 nM

B12: Ac-CQTWQCYW-[K(Palm)]-ENG-NH2 (peptide)
peptide: Ac-CQTWQCYWK(Palmitoyl)ENG-NH2
modifications: cysteine pairing not given here
[9]
  IC50: 4880 nM

B13: [Ac-[Pen]-QTWQ-[Pen]-[Phe(4-CONH2)]-[2-Nal]-[α-MeLys]-[Lys(Ac)]-NN-NH2]2DIG (peptide)
peptide: XQTWQXFXKKNN
modifications: Ac; Pen-Pen disulfide; Phe(4-CONH2); 2-Nal; α-MeLys; Lys(Ac); NH2; DIG linker joins the two subunits
[10]
  IC50: 10 to 25 nM

B14: [Ac-[Pen]-QTWQ[Pen]-[Phe[4-(2-acetylaminoethoxy)]-[2-Nal]-K-[Lys(Ac)]-NN-NH2]2DIG (peptide)
peptide: XQTWQXFXKKNN
modifications: Ac; Pen-Pen disulfide; Phe[4-(2-acetylaminoethoxy)]; 2-Nal; Lys(Ac); NH2; DIG linker joins the two subunits
[10]
  IC50: 25 to 100 nM

B15: [Ac-[Pen]-QTWQ-[Pen]-[Phe(4-OMe)]-[2-Nal]-[α-MeLys]-[Lys(Ac)]-NN-NH2]2DIG (peptide)
peptide: XQTWQXFXKKNN
modifications: Ac; Pen-Pen disulfide; Phe(4-OMe); 2-Nal; α-MeLys; Lys(Ac); NH2; DIG linker joins the two subunits
[10]
  IC50: 10 to 25 nM

Reference: patent US20190300590A1 (PROTAGONIST THERAPEUTICS, published 2019)
